From patent US7358333 (GENODYSSE S A, dated 2008)

Biological target: interferon receptor on MCF-7 breast carcinoma cells
Assay: cell-based or functional assay

| EC50, stimulation of Luciferase activity (pISRE-Luc reporter gene in MCF-7 cells) | ratio of the EC50 value for the mutated protein over the EC50 value for the wild-type protein (pISRE-Luc reporter gene in MCF-7 cells) | Binder |
| --- | --- | --- |
| 5.67 pM | – | natural wild-type IFNα-5 protein (ligand) CDLPQTHSLSNRRTLMIMAQMGRISPFSCLKDRHDFGFPQEEFDGNQFQKAQAISVLHEMIQQTFNLFSTKDSSATWDETLLDKFYTELYQQLNDLEACMMQEVGVEDTPLMNVDSILTVRKYFQRITLYLTEKKYSPCAWEVVRAEIMRSFSLSANLQERLRRKE |
| 93.3 pM | 18.3 fold | C122S mutated IFNα-5 (ligand) CDLPQTHSLSNRRTLMIMAQMGRISPFSCLKDRHDFGFPQEEFDGNQFQKAQAISVLHEMIQQTFNLFSTKDSSATWDETLLDKFYTELYQQLNDLEASMMQEVGVEDTPLMNVDSILTVRKYFQRITLYLTEKKYSPCAWEVVRAEIMRSFSLSANLQERLRRKE |
